In patent US20240282401A1, “METHODS FOR ENZYME ENGINEERING” (The University of Manchester, priority 2021, published 2024):

Experiments:
[1] = MAO-N variants, (S)-enantiomer of PPY, ref [104]; cited from earlier work
[2] = Thermal stability: residual activity after incubation at 45° C. or 50° C. (GC); type: physicochemical; settings: 60 min
Protocol: A subset of mutants was selected and inserted into the HDNO D3 and D6 variants by site directed mutagenesis either alone or in pairs to also check for interactions that would further stabilise the enzyme. Namely, D3-K208E, D6-K208E, D6-R207E, D6-K282E, D6-K428E and D6-K208E/K282E mutant proteins were expressed and purified (as described below) and incubated at elevated temperatures (45° C. or 50° C. for 1 h for D6 variants) using a constant temperature water bath incubator. Aliquots were taken every 15 min and activities were measured by biotransformation and gas chromatography (as described below). The % residual activity corresponds to the ratio between the activity observed after incubation at each specified time over the activity of the enzyme without any thermal treatment.
(§1) A typical 500 μL reaction mixture in a 2 mL tube contained 10 mM amine, 0.05 to 1 mg mL^−1 of purified HDNO variant in pH 8 100 mM NaPi buffer. […] The organic fractions were combined and dried over anhydrous MgSO4 and analysed by GC-FID (conversions) or HPLC (enantiomeric ratios) on a chiral stationary phase (see Chromatography section for details). Turnover frequencies (TOF, min^−1) were calculated as the moles of product formed/moles of enzyme min^−1 based on conversions obtained by GC-FID analysis (see Chromatography method). […]

[3] = Biotransformation of PPY by purified HDNO variants (GC-FID, chiral HPLC); type: biochemical; settings: for rate / activity increase towards PPY oxidation versus HDNO D2: biotransformation measurements
Protocol: (§2) Chiral normal phase HPLC was performed on an Agilent HPLC system (G1379A degasser, G1312A binary pump, a G1367A well plate autosampler unit, a G1316A temperature-controlled column compartment and a G1315C diode array detector) (Agilent Technologies Inc., Santa Clara, CA) equipped with a CHIRALCEL OD-H (250 mm length, 4.6 mm diameter, 5 μm particle size) analytical column (Daicel Corp., Osaka, Japan). The typical injection volume was 10 μL and chromatograms were monitored at 265 nm. Gas chromatographic (GC) analysis was performed on an Agilent 6850 GC (Agilent Technologies Inc., Santa Clara, CA) with a flame ionization detector and autosampler equipped with a HP-1 column of length 30 m, 0.32 mm inner diameter and 0.25 μm film thickness (Agilent Technologies Inc., Santa Clara, CA).
A typical 500 μL reaction mixture in a 2 mL tube contained 10 mM amine, 0.05 to 1 mg mL^−1 of purified HDNO variant in pH 8 100 mM NaPi buffer. Reactions were incubated at 30° C. with 250 r.p.m shaking for different reaction times, after which they were quenched by the addition of 50 μL of 10 M NaOH and extracted twice with 500 μL tert-butyl methyl ether (HPLC grade, Merck Life Science UK Limited, Gillingham). The organic fractions were combined and dried over anhydrous MgSO4 and analysed by GC-FID (conversions) or HPLC (enantiomeric ratios) on a chiral stationary phase (see Chromatography section for details). Turnover frequencies (TOF, min^−1) were calculated as the moles of product formed/moles of enzyme min^−1 based on conversions obtained by GC-FID analysis (see Chromatography method). The same response factor was considered for both substrate and product.

[4] = Biotransformation of methylbenzylamine by purified HDNO variants; type: biochemical
Protocol: as §2, §1

[5] = Kinetic parameters by HRP-ABTS assay; type: biochemical; settings: oxidation of 2-phenylpyrrolidine, 30° C., pH 8
Protocol: Kinetic parameters of different HDNO variants were determined using the ABTS-HRP assay. Samples of 20 μL of substrate at different concentrations in DMSO (0.05 mM-10 mM, 10% DMSO final concentration) was diluted in 130 μL of reacting solution which contained 0.2 mg ml^−1 HRP (IV, Sigma) and 0.4 mg ml^−1 ABTS in 100 mM pH 8 NaPi buffer. The assay was started by adding 50 μL purified enzyme (typically 0.1-2 mg ml^−1 concentration). Production of the reduced ABTS was measured using a Tecan infinite M200 microplate reader (Tecan Group Limited, Mannedorf, Switzerland) at 420 nm (E=36 mM^−1 cm^−1) and 30° C. for 10 min. Measurements were made in triplicate and a 1:1 ratio for the oxidation of substrate to the production of hydrogen peroxide was assumed. Rate was plotted against substrate concentration and Vmax and KM values extracted using non-linear regression analysis with a fit to the Michaelis-Menten equation using Prism software (GraphPad Software, San Diego, CA). Protein concentrations for kinetic parameters were determined using the Bradford assay following supplier's instructions using bovine serum albumin (BSA) standards for calibration (Merck Life Science UK Limited, Gillingham).

Molecule | reported kcat [1] [s⁻¹] | Km [5] [µM] | kcat [5] [s⁻¹] | other results
N336S: evolved monoamine oxidase (MAO-N) variant N336S (protein, UniProt P46882 1-495, looked up, variant N336S) Monoamine oxidase N: MTSRDGYQWTPETGLTQGVPSLGVISPPTNIEDTDKDGPWDVIVIGGGYCGLTATRDLTVAGFKTLLLEARDRIGGRSWSSNIDGYPYEMGGTWVHWHQSHVWREITRYKMHNALSPSFNFSRGVNHFQLRTNPTTSTYMTHEAEDELLRSALHKFTNVDGTNGRTVLPFPHDMFYVPEFRKYDEMSYSERIDQIRDELSLNERSSLEAFILLCSGGTLENSSFGEFLHWWAMSGYTYQGCMDCLISYKFKDGQSAFARRFWEEAAGTGRLGYVFGCPVRSVVNERDAARVTARDGREFAAKRLVCTIPLNVLSTIQFSPALSTERISAMQAGHVSMCTKVHAEVDNKDMRSWTGIAYPFNKLCYAIGDGTTPAGNTHLVCFGTDANHIQPDEDVRETLKAVGQLAPGTFGVKRLVFHNWVKDEFAKGAWFFSRPGMVSECLQGLREKHRGVVFANSDWALGWRSFIDGAIEEGTRAARVVLEELGTKREVKARL | 2.50 |  |  | 
N336S/1246M: evolved monoamine oxidase (MAO-N) variant (protein, UniProt P46882 1-495, looked up, variant N336S I246M) Monoamine oxidase N: MTSRDGYQWTPETGLTQGVPSLGVISPPTNIEDTDKDGPWDVIVIGGGYCGLTATRDLTVAGFKTLLLEARDRIGGRSWSSNIDGYPYEMGGTWVHWHQSHVWREITRYKMHNALSPSFNFSRGVNHFQLRTNPTTSTYMTHEAEDELLRSALHKFTNVDGTNGRTVLPFPHDMFYVPEFRKYDEMSYSERIDQIRDELSLNERSSLEAFILLCSGGTLENSSFGEFLHWWAMSGYTYQGCMDCLMSYKFKDGQSAFARRFWEEAAGTGRLGYVFGCPVRSVVNERDAARVTARDGREFAAKRLVCTIPLNVLSTIQFSPALSTERISAMQAGHVSMCTKVHAEVDNKDMRSWTGIAYPFNKLCYAIGDGTTPAGNTHLVCFGTDANHIQPDEDVRETLKAVGQLAPGTFGVKRLVFHNWVKDEFAKGAWFFSRPGMVSECLQGLREKHRGVVFANSDWALGWRSFIDGAIEEGTRAARVVLEELGTKREVKARL | 2.13 |  |  | 
D3: HDNO D2 plus N414H (E350L/E352D/N414H), SEQ ID NO: 4 (protein, HDNO D3) MVSSKLATPLSIQGEVIYPDDSGFDAIANIWDGRHLQRPSLIARCLSAGDVAKSVRYACDNGLEISVRSGGHNPNGYATNDGGIVLDLRLMNSIHIDTAGSRARIGGGVISGDLVKEAAKFGLAAVTGMHPKVGFCGLALNGGVGFLTPKYGLASDNILGATLVTATGDVIYCSDDERPELFWAVRGAGPNFGVVTEVEVQLYELPRKMLAGFITWAPSVSELAGLLTSLLDALNEMADHIYPSVFVGVDENRAPSVTVCVGHLGGLDIAERDIARLRGLGRTVSDSIAVRSYDEVVALNAEVGSFEDGMSNLWIDREIAMPNARFAEAIAGNLDKFVSEPASGGSVKLLIDGMPFGNPKRTPARHRDAMGVLALAEWSGAAPGSEKYPELARELDAALLRAGVTTSGFGLLNHNSEVTAEMVAEVYKPEVYSRLAAVKREYDPENRFRHNYNIDPEGS |  | 490 ± 140 | 0.71 ± 0.05 | residual activity [2]: 62%; rate / activity increase towards PPY oxidation versus HDNO D2 ([3]; listed as 6-HDNO D3): 1.7 fold; rate / activity increase towards PPY oxidation versus HDNO D2 ([3]; listed as HDNO D3): almost twofold increase; enantioselectivity of PPY oxidation ([3]; chiral HPLC): completely selective towards the oxidation of the (R)-enantiomer; activity to methylbenzylamine lower than in HDNO D6 [4]: about 20%
D2: 6-hydroxy-D-nicotine oxidase from Arthrobacter nicotinovorans with E350L/E352D, SEQ ID NO: 2 (protein, HDNO D2) MVSSKLATPLSIQGEVIYPDDSGFDAIANIWDGRHLQRPSLIARCLSAGDVAKSVRYACDNGLEISVRSGGHNPNGYATNDGGIVLDLRLMNSIHIDTAGSRARIGGGVISGDLVKEAAKFGLAAVTGMHPKVGFCGLALNGGVGFLTPKYGLASDNILGATLVTATGDVIYCSDDERPELFWAVRGAGPNFGVVTEVEVQLYELPRKMLAGFITWAPSVSELAGLLTSLLDALNEMADHIYPSVFVGVDENRAPSVTVCVGHLGGLDIAERDIARLRGLGRTVSDSIAVRSYDEVVALNAEVGSFEDGMSNLWIDREIAMPNARFAEAIAGNLDKFVSEPASGGSVKLLIDGMPFGNPKRTPARHRDAMGVLALAEWSGAAPGSEKYPELARELDAALLRAGVTTSGFGLLNNNSEVTAEMVAEVYKPEVYSRLAAVKREYDPENRFRHNYNIDPEGS |  | 1060 ± 440 | 0.50 ± 0.06 | 
